These results are taken from paper PMC9033776 (2022).

Where no end group is shown, it is not given here.

Holding throughout (assay): ITC
(In ITC the heat of successive injections is recorded.)

The target in assay [1] is BRD2_(bromo1) (amino acids 73–194) (UniProt P25440 73-194).
The target of assay [2] is BRD3_(bromo1) (amino acids 24–144) (UniProt Q15059 24-144).
The target of assay [3] is BRD3_(bromo2) domain (amino acids 306–416) (UniProt Q15059 306-416).
Assay [4] deals with BRD2_(bromo2) domain (amino acids 455–347) (UniProt P25440 347-455).
The target of assay [5] is Bromo1-linker(GGS)5-Bromo2 of BRD4 (UniProt O60885 54-168; O60885 351-457).

Sequence of BRD2_(bromo1) (amino acids 73–194) (P25440 73-194): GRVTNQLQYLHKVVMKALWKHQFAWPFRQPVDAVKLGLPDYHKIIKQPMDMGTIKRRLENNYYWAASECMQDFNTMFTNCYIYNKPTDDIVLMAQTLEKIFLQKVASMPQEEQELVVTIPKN
Sequence of BRD3_(bromo1) (amino acids 24–144) (Q15059 24-144): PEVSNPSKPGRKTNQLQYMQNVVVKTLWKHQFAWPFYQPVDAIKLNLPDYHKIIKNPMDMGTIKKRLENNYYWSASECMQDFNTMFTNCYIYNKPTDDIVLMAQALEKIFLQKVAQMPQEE
Sequence of BRD2_(bromo2) domain (amino acids 455–347) (P25440 347-455): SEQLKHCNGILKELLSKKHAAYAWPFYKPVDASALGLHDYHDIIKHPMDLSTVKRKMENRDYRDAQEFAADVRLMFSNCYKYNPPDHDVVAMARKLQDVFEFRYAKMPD
Sequence of BRD3_(bromo2) domain (amino acids 306–416) (Q15059 306-416): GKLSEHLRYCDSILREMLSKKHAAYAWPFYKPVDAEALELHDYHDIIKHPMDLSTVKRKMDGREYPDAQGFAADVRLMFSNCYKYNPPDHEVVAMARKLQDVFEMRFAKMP

Consider AGGK(Ac)AGK(Ac)DSGK(Ac)AKTK [tri-acetylated H2A.Z (1–15) K4acK7acK11ac peptide], for which the Kd in assay [1] amounted to 2600 µM; in assay [2] it was 1500 µM; in assay [3], 1800 µM; in assay [4] it was 2000 µM.

As for AGGK(Ac)AGK(Ac)DSGK(Ac)AKTKC (also: cross-linked via C-terminal cysteine) [H2A.ZK4ac7ac11ac peptides cross-linked by a C-terminal cysteine], the Kd in assay [5] is 350 µM.

Broadly, the Kd is the constant that tells how readily two partners part at equilibrium. The low end stands for higher affinity, the high end for lower affinity.
